B1: NAD-dependent protein deacetylase sirtuin-3, mitochondrial (Homo sapiens), Q9NTG7 (parent)
chain: MAFWGWRAAAALRLWGRVVERVEAGGGVGPFQACGCRLVLGGRDDVSAGLRGSHGARGEPLDPARPLQRPPRPEVPRAFRRQPRAAAPSFFFSSIKGGRRSISFSVGASSVVGSGGSSDKGKLSLQDVAELIRARACQRVVVMVGAGISTPSGIPDFRSPGSGLYSNLQQYDLPYPEAIFELPFFFHNPKPFFTLAKELYPGNYKPNVTHYFLRLLHDKGLLLRLYTQNIDGLERVSGIPASKLVEAHGTFASATCTVCQRPFPGEDIRADVMADRVPRCPVCTGVVKPDIVFFGEPLPQRFLLHVVDFPMADLLLILGTSLEVEPFASLTEAVRSSVPRLLINRDLVGPLAWHPRSRDVAQLGDVVHGVESLVELLGWTEEMRDLVQRETGKLDGPDK

Variants of: B1
Conditions: with aldh2_human ALDH2, P05091
aldh2_human ALDH2, P05091, sequence (P05091 whole entry): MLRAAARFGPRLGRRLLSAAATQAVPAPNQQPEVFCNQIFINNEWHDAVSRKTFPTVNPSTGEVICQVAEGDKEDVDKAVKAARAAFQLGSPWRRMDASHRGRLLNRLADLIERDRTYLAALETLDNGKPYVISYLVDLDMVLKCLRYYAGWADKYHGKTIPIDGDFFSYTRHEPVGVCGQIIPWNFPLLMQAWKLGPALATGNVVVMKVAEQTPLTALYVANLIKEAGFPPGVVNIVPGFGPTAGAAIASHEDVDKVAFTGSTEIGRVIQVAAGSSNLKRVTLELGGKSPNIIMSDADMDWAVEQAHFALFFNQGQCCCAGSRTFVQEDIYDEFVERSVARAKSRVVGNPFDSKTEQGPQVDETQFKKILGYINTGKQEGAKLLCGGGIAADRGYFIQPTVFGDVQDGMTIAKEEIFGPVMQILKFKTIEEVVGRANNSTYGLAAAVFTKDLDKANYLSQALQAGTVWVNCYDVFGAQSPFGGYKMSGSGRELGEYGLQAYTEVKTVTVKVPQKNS

Row | effect of a mutation on the interaction | Variant
1 | decreasing interaction | H248Y
